Source: US20030113787A1 (Takeda / Millennium, published 2003)

T1: Bcl-10-CARD/AD (mouse, UniProt Q04207 364-549; O95999 1-104)
T1 sequence (looked up): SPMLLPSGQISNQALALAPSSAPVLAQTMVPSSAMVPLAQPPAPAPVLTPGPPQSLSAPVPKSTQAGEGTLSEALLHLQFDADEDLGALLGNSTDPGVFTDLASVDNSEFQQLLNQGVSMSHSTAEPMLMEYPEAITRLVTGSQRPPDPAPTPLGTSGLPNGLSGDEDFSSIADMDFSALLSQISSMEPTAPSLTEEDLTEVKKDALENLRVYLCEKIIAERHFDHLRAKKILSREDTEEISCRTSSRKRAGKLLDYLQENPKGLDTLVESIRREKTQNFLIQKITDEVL

B1: CARD-9-CARD/AD (other, mouse)
chain: SPMLLPSGQISNQALALAPSSAPVLAQTMVPSSAMVPLAQPPAPAPVLTPGPPQSLSAPVPKSTQAGEGTLSEALLHLQFDADEDLGALLGNSTDPGVFTDLASVDNSEFQQLLNQGVSMSHSTAEPMLMEYPEAITRLVTGSQRPPDPAPTPLGTSGLPNGLSGDEDFSSIADMDFSALLSQISSMSDYENDDECWNVLEGFRVTLTSVIDPSRITPYLRQCKVLNPDDEEQVLSDPNLVIRKRKVGVLLDILQRTGHKGYVAFLESLELYYPQLYKKVTGKEPARVFSMIIDAS
B2: CARD-11-CARD fused to the NF-kB activation domain (pCMV-CARD-11/AD) (other, mouse)
chain: SPMLLPSGQISNQALALAPSSAPVLAQTMVPSSAMVPLAQPPAPAPVLTPGPPQSLSAPVPKSTQAGEGTLSEALLHLQFDADEDLGALLGNSTDPGVFTDLASVDNSEFQQLLNQGVSMSHSTAEPMLMEYPEAITRLVTGSQRPPDPAPTPLGTSGLPNGLSGDEDFSSIADMDFSALLSQISSEEDALWENVECNRHMLSRYINPAKLTPYLRQCKVIDEQDEDEVLNAPMLPSKINRAGRLLDILHTKGQRGYVVFLESLEFYYPELYKLVTGKE
B3: Bcl-10-CARD/BD (other, UniProt P04386 1-147, looked up)
chain: MKLLSSIEQACDICRLKKLKCSKEKPKCAKCLKNNWECRYSPKTKRSPLTRAHLTEVESRLERLEQLFLLIFPREDLDMILKMDSLQDIKALLTGLFVQDNVNKDAVTDRLASVETDMPLTLRQHRISATSSSEESSNKGQRQLTVSMEPTAPSLTEEDLTEVKKDALENLRVYLCEKIIAERHFDHLRAKKILSREDTEEISCRTSSRKRAGKLLDYLQENPKGLDTLVESIRREKTQNFLIQKITDEVL
notes: range 1-147;range 1-104; Two-hybrid construct in pCMV-BD; also called CARD of Bcl-10; CARD of Bcl10

Legend:
[1] = molecular target: Bcl-10 dominant negative deletion mutant (amino acids 1-104) (UniProt O95999); assay: cell-based or functional assay
[2] = molecular target: B3; assay: cell-based or functional assay
[3] = molecular target: T1, Bcl-10-CARD/AD; assay: cell-based or functional assay
[4] = molecular target: B1; assay: mammalian two-hybrid, 293T cells
Method: (§1) For the additional mammalian two-hybrid assays, 293T cells in 6-well plates (35-mm wells) were transfected with the following plasmids: 750 ng of pCMV-CARD-9/AD, 750 ng of pCMV-CARD/BD, 250 ng of pFR-Luc firefly reporter (Stratagene), and 250 ng of pRL-TK renilla reporter (Promega). For NF-?B assays, 293T cells were transfected with the following plasmids: 900 ng of pNF-kB luciferase reporter (Stratagene), 100 ng of pRL-TK renilla reporter (Promega) and 1000 ng of indicated expression plasmids. Cells were harvested 24 h after transfection, and firefly luciferase activity was determined using the Dual-Luciferase Reporter Assay System (Promega). In addition, renilla luciferase activity was determined and used to normalize transfection efficiencies.
(§2) To identify the binding partners of CARD-11, a mammalian two-hybrid analysis was performed using the CARD domains of 15 known proteins. For mammalian two-hybrid assays, 293T cells in 6-well plates (35-mm wells) were transfected with the following plasmids: 750 ng of pCMV-CARD-11/AD, 750 ng of pCMV-BD fused to individual CARD domains, 250 ng of pFR-Luc firefly reporter (Stratagene), and 250 ng of pRL-TK renilla reporter (Promega). pCMV-CARD-11 /AD and pCMV-CARD/BD plasmids were constructed by inserting individual CARD domains into pCMV-CARD/AD and pCMV-BD, respectively (Stratagene): Bcl-10 (residues 1-104), ARC (residues 1-110), RICK (residues 417-540), CARD-4 (residues 1-1 19), ASC (residues 92-195), caspase-I (residues 1-110), caspase-2 (residues 1-122), caspase-4 (residues 1-108), caspase-9 (residues 1-111), caspase-11 (residues 1-122), caspase-12 (residues 1-121), IAP-1 (residues 423-543), IAP-2 (residues 450-557), Apaf-1 (residues 1-108) and RAIDD (residues 1 -108). Cells were harvested 24 hours after transfection, and firefly luciferase activity was determined using the Dual-Luciferase Reporter Assay System (Promega). In addition, renilla luciferase activity was determined and used to normalize transfection efficiencies.

[5] = molecular target: B2; assay: mammalian two-hybrid, 293T cells
Method: as §1, §2

Row | Molecule | binding result [4] | binding result [5] | other results
1 | human CARD-11 (from UniProt Q9BXL7 8-1154) |  |  | NF-κB activity (luciferase reporter) left with dominant negative Bcl-10 (times above background) [1]: 1.7; NF-κB activity (luciferase reporter), reduction by dominant negative Bcl-10 [1]: 4 fold
2 | human CARD-10 (from UniProt Q9BWT7 1-1032) |  |  | NF-κB activity (luciferase reporter) left with dominant negative Bcl-10 (times above background) [1]: 10; NF-κB activity (luciferase reporter), reduction by dominant negative Bcl-10 [1]: 35 fold
3 | B1 |  |  | relative luciferase activity (mammalian two-hybrid reporter) [2]: 250 fold
4 | CARD-9-CARD/BD (other, yeast) MKLLSSIEQACDICRLKKLKCSKEKPKCAKCLKNNWECRYSPKTKRSPLTRAHLTEVESRLERLEQLFLLIFPREDLDMILKMDSLQDIKALLTGLFVQDNVNKDAVTDRLASVETDMPLTLRQHRISATSSSEESSNKGQRQLTVSMSDYENDDECWNVLEGFRVTLTSVIDPSRITPYLRQCKVLNPDDEEQVLSDPNLVIRKRKVGVLLDILQRTGHKGYVAFLESLELYYPQLYKKVTGKEPARVFSMIIDAS |  |  | luciferase activity (mammalian two-hybrid reporter) [3]: 75 fold
5 | B2 |  |  | relative luciferase activity (mammalian two-hybrid reporter) [2]: 17 fold
6 | B3 | binds |  | 
7 | ARC CARD domain (residues 1-110) in pCMV-BD (other, UniProt P04386 1-147, looked up, range 1-147;range 1-110; Member of the two-hybrid CARD panel) MKLLSSIEQACDICRLKKLKCSKEKPKCAKCLKNNWECRYSPKTKRSPLTRAHLTEVESRLERLEQLFLLIFPREDLDMILKMDSLQDIKALLTGLFVQDNVNKDAVTDRLASVETDMPLTLRQHRISATSSSEESSNKGQRQLTVSMGNAQERPSETIDRERKRLVETLQADSGLLLDALLARGVLTGPEYEALDALPDAERRVRRLLLLVQGKGEAACQELLRCAQRTAGAPDPAWDWQHVGPGYRDRSYDPPCP | no binding | no binding | 
8 | caspase-12 CARD domain (residues 1-121) in pCMV-BD (other, UniProt P04386 1-147, looked up, range 1-147;range 1-121; Member of the two-hybrid CARD panel) MKLLSSIEQACDICRLKKLKCSKEKPKCAKCLKNNWECRYSPKTKRSPLTRAHLTEVESRLERLEQLFLLIFPREDLDMILKMDSLQDIKALLTGLFVQDNVNKDAVTDRLASVETDMPLTLRQHRISATSSSEESSNKGQRQLTVSMAARRTHERDPIYKIKGLAKDMLDGVFDDLVEKNVLNGDELLKIGESASFILNKAENLVENFLEKTDMAGKIFAGHIANSQEQLSLQFSNDEDDGPQKICTPSSPSESKRKVEDDEMEVNA | no binding | no binding | 
9 | Apaf-1 CARD domain (residues 1-108) in pCMV-BD (other, UniProt P04386 1-147, looked up, range 1-147;range 1-108; Member of the two-hybrid CARD panel) MKLLSSIEQACDICRLKKLKCSKEKPKCAKCLKNNWECRYSPKTKRSPLTRAHLTEVESRLERLEQLFLLIFPREDLDMILKMDSLQDIKALLTGLFVQDNVNKDAVTDRLASVETDMPLTLRQHRISATSSSEESSNKGQRQLTVSMDAKARNCLLQHREALEKDIKTSYIMDHMISDGFLTISEEEKVRNEPTQQQRAAMLIKMILKKDNDSYVSFYNALLHEGYKDLAALLHDGIPVVSSSSGKDSVSGITS | no binding | no binding | 
10 | RAIDD CARD domain (residues 1-108) in pCMV-BD (other, UniProt P04386 1-147, looked up, range 1-147;range 1-108; Member of the two-hybrid CARD panel) MKLLSSIEQACDICRLKKLKCSKEKPKCAKCLKNNWECRYSPKTKRSPLTRAHLTEVESRLERLEQLFLLIFPREDLDMILKMDSLQDIKALLTGLFVQDNVNKDAVTDRLASVETDMPLTLRQHRISATSSSEESSNKGQRQLTVSMEARDKQVLRSLRLELGAEVLVEGLVLQYLYQEGILTENHIQEINAQTTGLRKTMLLLDILPSRGPKAFDTFLDSLQEFPWVREKLKKAREEAMTDLPAGDRLTGIPS | no binding | no binding | 
11 | RICK CARD domain (residues 417-540) in pCMV-BD (other, UniProt P04386 1-147, looked up, range 1-147;range 417-540; Member of the two-hybrid CARD panel) MKLLSSIEQACDICRLKKLKCSKEKPKCAKCLKNNWECRYSPKTKRSPLTRAHLTEVESRLERLEQLFLLIFPREDLDMILKMDSLQDIKALLTGLFVQDNVNKDAVTDRLASVETDMPLTLRQHRISATSSSEESSNKGQRQLTVSAIINPLSTAGNSERLQPGIAQQWIQSKREDIVNQMTEACLNQSLDALLSRDLIMKEDYELVSTKPTRTSKVRQLLDTTDIQGEEFAKVIVQKLKDNKQMGLQPYPEILVVSRSPSLNLLQNKSM | no binding | no binding | 
12 | CARD-4 CARD domain (residues 1-119) in pCMV-BD (other, UniProt P04386 1-147, looked up, range 1-147;range 1-119; Member of the two-hybrid CARD panel) MKLLSSIEQACDICRLKKLKCSKEKPKCAKCLKNNWECRYSPKTKRSPLTRAHLTEVESRLERLEQLFLLIFPREDLDMILKMDSLQDIKALLTGLFVQDNVNKDAVTDRLASVETDMPLTLRQHRISATSSSEESSNKGQRQLTVSMEEQGHSEMEIIPSESHPHIQLLKSNRELLVTHIRNTQCLVDNLLKNDYFSAEDAEIVCACPTQPDKVRKILDLVQSKGEEVSEFFLYLLQQLADAYVDLRPWLLEIGFSPSLLTQSKV | no binding | no binding | 
13 | ASC CARD domain (residues 92-195) in pCMV-BD (other, UniProt P04386 1-147, looked up, range 1-147;range 92-195; Member of the two-hybrid CARD panel) MKLLSSIEQACDICRLKKLKCSKEKPKCAKCLKNNWECRYSPKTKRSPLTRAHLTEVESRLERLEQLFLLIFPREDLDMILKMDSLQDIKALLTGLFVQDNVNKDAVTDRLASVETDMPLTLRQHRISATSSSEESSNKGQRQLTVSGSGAAPAGIQAPPQSAAKPGLHFIDQHRAALIARVTNVEWLLDALYGKVLTDEQYQAVRAEPTNPSKMRKLFSFTPAWNWTCKDLLLQALRESQSYLVEDLERS | no binding | no binding | 
